One block for each binder: values may come before it.
Columns and labels:
[1] = molecular target: T1, 犬CD20 (canine CD20, B淋巴细胞抗原CD20, full length, wild type) (canine (dog), UniProt Q3C2E2 1-297); test: flow cytometry on MDCK cells expressing wild-type canine CD20 (positive control of epitope mapping)
T1 construct: Stably expressed from full-length cDNA on MDCK II (or HEK293) cells for flow cytometry and ADCC; naturally expressed on CLBL-1 canine lymphoma cells in the CDC assay; also called cCD20; MS4A1
T1 chain: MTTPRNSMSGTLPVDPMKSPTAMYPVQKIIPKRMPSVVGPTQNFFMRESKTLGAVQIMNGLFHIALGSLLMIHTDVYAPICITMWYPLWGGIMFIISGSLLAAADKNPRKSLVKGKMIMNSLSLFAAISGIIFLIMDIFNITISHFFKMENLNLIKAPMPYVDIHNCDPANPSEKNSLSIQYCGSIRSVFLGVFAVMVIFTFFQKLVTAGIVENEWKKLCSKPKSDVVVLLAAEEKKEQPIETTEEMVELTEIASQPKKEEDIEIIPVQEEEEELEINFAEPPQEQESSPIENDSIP

[2] = molecular target: T1, 犬CD20 (canine CD20, B淋巴细胞抗原CD20, full …); test: flow cytometry, 10 ug/ml antibody on MDCK II cells expressing canine CD20 (Fig 3A); equal to 4E1-7
[3] = molecular target: T1, 犬CD20 (canine CD20, B淋巴细胞抗原CD20, full …); test: flow cytometry on cells expressing canine CD20, against PMX003 (Fig 3B); slight decrease
[4] = molecular target: T1, 犬CD20 (canine CD20, B淋巴细胞抗原CD20, full …); test: flow cytometry on cells expressing canine CD20, against PMX003 (Fig 3B); unchanged

B1: PMX003 (antibody, V domains shown)
VH: EVQLVESGGDLVKPGGSLRLSCVASGITFSRYHMSWVRQAPGKGLQWVAYINSGGSSTSYPDAVKGRFTISRDNAKNTLYLQMDSLRAEDTALYYCTTFDYWGQGTLVTVSS
VL: SYVLTQLPSKNVTLKQPAHITCGGDNIGSKSVHWYQQKLGQAPVLIIYYDSRRPTGIPERFSGANSGNTATLTISGALAEDEADYYCQVWDSSANVFGGGTHLTVL
notes: Fully canine mAb; Tested in native form and in an a-fucosylated form (made in Fut8 knockout CHO cells) in CDC/ADCC; also called PMX003 mAb
binding result [1]: binds

B2: PMX002 (antibody, V domains shown)
VH: EVQLVESGGDLVKPGGSLRLSCVASGIIFSNYHMSWVRQVPGKGLQWVAYINSGGSTINYADGVKGRFTISRDNAKNSLYLQMNSLRGEDTAVYYCTTYDSWGQGTLVTVSS
VL: SYVLTQLPSKNVTLKQPAHITCGGDNIGSKSVHWYQQKLGQAPVLIIYYDSSRPTGIPERFSGANSGNTATLTISGALAEDEADYYCQVWDSSVNVFGGGTHLTVL
notes: Fully canine mAb; also called PMX002 mAb
binding result [2]: binds

B3: PMX007 (antibody, V domains shown)
VH: EVQLVESGGDLVKPGGSLRLSCVASGITFSRYHMSWVRQAPGKGLQWVAYINSGGSSTSYPDAVKGRFTISRDNAKNTLYLQMDSLRAEDTALYYCTTFDYWGQGTLVTVSS
VL: SYVLTQLPSKAVTLKQPAHITCGGDNIGSKSVHWYQQKLGQAPVLIIYYDSRRPTGIPERFSGANSGNTATLTISGALAEDEADYYCQVWDSSANVFGGGTHLTVL
notes: PMX003 heavy chain; Constant regions not restated (PMX003: dog IGGB / dog IGLC5); also called PMX007 mAb; AVT突变体
binding result [3]: binds

Second part, the binder after the results:

binding result [4]: binds
B4: PMX008 (antibody, V domains shown)
VH: EVQLVESGGDLVKPGGSLRLSCVASGITFSRYHMSWVRQAPGKGLQWVAYINSGGSSTSYPDAVKGRFTISRDNAKNTLYLQMDSLRAEDTALYYCTTFDYWGQGTLVTVSS
VL: SYVLTQLPSKEVTLKQPAHITCGGDNIGSKSVHWYQQKLGQAPVLIIYYDSRRPTGIPERFSGANSGNTATLTISGALAEDEADYYCQVWDSSANVFGGGTHLTVL
notes: PMX003 heavy chain; Constant regions not restated (PMX003: dog IGGB / dog IGLC5); also called PMX008 mAb; EVT

binding result [4]: binds
B5: PMX009 (antibody, V domains shown)
VH: EVQLVESGGDLVKPGGSLRLSCVASGITFSRYHMSWVRQAPGKGLQWVAYINSGGSSTSYPDAVKGRFTISRDNAKNTLYLQMDSLRAEDTALYYCTTFDYWGQGTLVTVSS
VL: SYVLTQLPSKNVALKQPAHITCGGDNIGSKSVHWYQQKLGQAPVLIIYYDSRRPTGIPERFSGANSGNTATLTISGALAEDEADYYCQVWDSSANVFGGGTHLTVL
notes: PMX003 heavy chain; Constant regions not restated (PMX003: dog IGGB / dog IGLC5); also called PMX009 mAb; NVA

binding result [3]: binds
B6: PMX006 (antibody, V domains shown)
VH: EVQLVESGGDLVKPGGSLRLSCVASGITFSRYHMSWVRQAPGKGLQWVAYINSGGSSTSYPDAVKGRFTISRDNAKNTLYLQMDSLRAEDTALYYCTTFDYWGQGTLVTVSS
VL: SYVLTQLPSKQVTLKQPAHITCGGDNIGSKSVHWYQQKLGQAPVLIIYYDSRRPTGIPERFSGANSGNTATLTISGALAEDEADYYCQVWDSSANVFGGGTHLTVL
notes: PMX003 heavy chain; Constant regions not restated (PMX003: dog IGGB / dog IGLC5); also called PMX006 mAb; QVT突变体

binding result [1]: binds
B7: PMX115 (antibody, V domains shown)
VH: EMQLVESGGALVKPGGSLRLSCVASGFTFRRYHMSWVRQAPGQGLQWVAYIDSDGSPTSYGDSVKGRFTISRDNAKNTLFLQMNSLRVDDTAVYYCTTLDYWGRGTLVTVSS
VL: SYVLTQVPSKSVTLKQPAHITCGGDNIGGKSVHWYQQKLGQAPLLIIYYDTRRPTGIPERFSGANSGNTATLTISRALAEDEADYYCQVWDSSGNVFGGGTHLTVI
notes: also called PMX115 mAb

From patent publication CN117677637A (PETEMEDI LTD, dated 2024)
